According to patent US20020187484A1, “Molecular break lights probes for detecting nucleotide cleavage” (priority 2000, published 2002):
Read-outs that look alike come from different tables or passages of the source. Marks after values point to notes of the source that are not given here.

Assays:
[1] = system: supercoiled pBlusecript plasmid DNA; experiment: Calicheamicin-induced cleavage of supercoiled plasmid DNA, protection by CalC (agarose gel); type: biochemical
Description: Prevention of cleavage by calicheamicin—protection by CalC was assessed. […] To test this theory, preliminary assays were performed with supercoiled pBlusecript plasmid DNA (“pBS”) as the template, and dithiothreitol (“DTT”) as the reductive initiator. […] Then 2.5 μL 10 mM DTT stock solution was added to the assay solution, and the assay was incubated an additional 1 hour at 37° C. DNA fragmentation was assessed by electrophoresis on a 1% agarose gel stained with ethidium bromide.
To test this theory, assays were performed with supercoiled pblusecript plasmid DNA (“pBS”) as the template, and dithiothreitol (“DTT”) as the reductive initiator. […] 2.5 μL 10 mM DTT stock solution was added to the assay solution, and the assay was incubated an additional 1 hour at 37° C.
DNA fragmentation was assessed by electrophoresis on a 1% agarose gel stained with ethidium bromide.

break light B [2] = experiment: Calicheamicin cleavage of break light B; type: biochemical; conditions: calicheamicin with DTT
break light A [3] = experiment: Molecular break light assay: cleavage of break light A by enediynes and Fe^+2-dependent agents; type: biochemical
Description: Samples were analyzed with a FluoroMax-2 spectrofluorometer equipped with DataMax for Windows (Instruments S. A., Inc.; Edison, N.J.) and the temperature controlled (30° C., unless otherwise noted) by a Haake Circulator DC10. All samples were filtered prior to analysis and analyzed via a timebase scan (λex=485 nm, λEm=517 nm) in a Suprasil quartz cuvette (10 mm path) fitted with a magnetic stirring bar in a total volume of 2 mL. […] Total cleavage of the labeled oligonucleotide, confirmed by polyacrylamide gel electrophoresis (PAGE), was defined as the maximum fluorescence emission possible under saturated cleaving conditions. Emission units were converted to the amount of labeled oligonucleotide used within a procedure, thereby equating labeled oligonucleotide degradation as a function of the emission of fluorescence.
Enediyne antibiotics calicheamicin and esperamicin at varying concentrations (0.31, 0.78, 1.6, 3.2, 15.9, and 31.7 nM) were incubated in 40 mM Tris-HCl (pH 7.5) with 3.2 nM of the calicheamicin-specific labeled molecular break light oligonucleotide (A). DNA cleavage was initiated with the addition of 1 μL 100 mM dithiothreitol (“DTT”) to produce a final concentration of 50 μM DTT, and the reaction was monitored over 10 minutes via spectrofluorometry.
Pseudo-first order kinetic parameters were utilized to determine the initial velocities at each given enediyne concentration. Specifically, graphical representation of the data was based upon equation 2 where [A]t is the concentration of cleaved oligonucleotide at a given time (t) and [A]0 is the initial concentration of oligonucleotide in the assay. Least squares analysis gave the slope (k), or rate, which was converted to V by the relationship in equation 3. The maximum velocity achieved (Vmax) was then selected from the range of concentrations examined.
ln[A]t=−kt+ln[A]0 [Equation 2]
Bleomycin, an Fe^+2-dependent nucleic acid cleavage agent, is a natural metabolite from Streptomyces verticillus. Blenoxane (a mixture containing approximately 70% bleomycin A2 and 30% bleomycin B2) was dissolved in water & optically standardized (ε291=1.7×10^4M^−1 cm^−1). Bleomycin mediated cleavage was adapted from procedures outlined by Giloni et al. J. Biol. Chem. 256: 8608-8615 (1981). Several different concentrations of bleomycin (200 nM, 100 nM, 50 nM, 25 nM, 12.5 nM, 5 nM, and 2.5 nM) were incubated in 50 mM sodium phosphate, 2.5 mM ascorbate, at pH 7.5 and 37° C. with 3.2 nM of the molecular break light A.
The reaction was initiated by the addition of 65 mM Fe(II) and monitored over 5 minutes. This protocol was repeated with the addition of 5 mM sodium ascorbate to the above conditions. Pseudo-first order kinetic parameters were utilized to determine the initial velocities at each given bleomycin concentration as previously described.
In a first assay, 3.2 nM break light A was incubated in 40 mM Tris HCl and 2.5 mM ascorbate at 37° C. and pH 7.5. Cleavage was initiated by addition of MPE/Fe(II) in a 1.2:1 molar ratio to various concentrations. Final Fe(II) concentrations were 8 μM, 4 μM, 2 μM, 1 μM, 500 nM, 250 nM, and 125 nM.
In a second assay, 32 nM molecular break light A was incubated in 40 mM Tris and 2.5 mM sodium ascorbate at pH 7.5 and 37° C. Cleavage was initiated by addition of MPE/Fe(II) in a 1.2:1 molar ratio to various concentrations. Final Fe(II) concentrations were 50 nM, 125 nM, 250 nM, 500 nM, 1 μM, and 2 μM.
In a third assay, 32 nM break light A (calicheamicin-specific molecular break light oligonucleotide) was incubated in 40 mM Tris and 2.5 mM sodium ascorbate at pH 7.5 and 37° C.

[4] = system: dual fluorophoric-labeled dsDNA; conditions: 0.8 nM dual fluorophoric-labeled dsDNA, FCS spectrometer; cited from earlier work
break light A [5] = experiment: BamHI / DNaseI digestion of break light A (proof of principle); type: biochemical; conditions: 3.2 nM break light A, 37° C.; 100 U BamHI or 10 U DNaseI
Description: (§1) The cleavage of molecular break light probes A and B by BamHI was investigated. In a first assay, break light A and break light B were each incubated with 100 U BamHI. As a control, break light B was also incubated without enzyme. The incubations occurred at 37° C. in a solution containing 10 mM TrisHCl, 50 mM NaCl, 10 mM MgCl2, and 1 mM DTT at pH 7.9.
(§2) In a second assay, break light A and break light B were each incubated with 10 U DnaseI. As a control, break light A was also incubated without enzyme. The incubations occurred at 37° C. in a solution containing 40 mM Tris HCl, 10 mM MgSO4, and 1 mM CaCl2 at pH 8.0.

[6] = system: oligonucleotide substrate; conditions: previously reported values for BamHI; cited from earlier work
molecular break light B = experiment: BamHI steady state kinetics and sensitivity limits with break light B; type: biochemical
Description: Samples were analyzed with a FluoroMax-2 spectrofluorometer equipped with DataMax for Windows (Instruments S. A., Inc.; Edison, N.J.) and the temperature controlled (30° C., unless otherwise noted) by a Haake Circulator DC10. All samples were filtered prior to analysis and analyzed via a timebase scan (λex=485 nm, λEm=517 nm) in a Suprasil quartz cuvette (10 mm path) fitted with a magnetic stirring bar in a total volume of 2 mL. Reactions were equilibrated to the incubation temperature before initiation of DNA cleavage as was evident by a steady background emission over 10 min. Total cleavage of the labeled oligonucleotide, confirmed by polyacrylamide gel electrophoresis (PAGE), was defined as the maximum fluorescence emission possible under saturated cleaving conditions. Emission units were converted to the amount of labeled oligonucleotide used within a procedure, thereby equating labeled oligonucleotide degradation as a function of the emission of fluorescence.
Determination of BamHI (10 units/μL) specific cleavage was performed in 6 mM TrisHCl, 100 mM NaCl, 6 mM MgCl2, and 1 mM DTT, at 37° C. and pH 7.5 with 3.2 nM of molecular break light B (FIG. 2B) and varying amounts of BamHI-specific oligonucleotide lacking the fluorophore and quenching moieties. Total substrate concentrations (including break light) were as follows: 389 nM, 196 nM, 81 nM, 42 nM, 11 nM, 7.5 nM, and 3.4 nM.
The reaction was initiated with 10 U BamHI enzyme and monitored via spectrofluorometry over a time course of fifteen minutes. The initial rate of DNA cleavage was determined from data within the first 100 seconds of initiation which was then adjusted according to equation 1. These adjusted values were utilized for the reciprocal plot from which the Michaelis-Menten kinetic parameters were determined.
Vact=Vobs([Sact]/[S*]) [Equation 1]
The steady-state kinetic parameters for a commercially available BamHI were determined. The dependence of BamHI hydrolysis on substrate concentration was investigated using mixtures of a fixed amount of molecular break light B and varying amounts of an analogous non-labeled oligonucleotide (lacking both FAM and DABCYL) over a wide substrate concentration range. The apparent competitive inhibition observed due to phenomenon of “carrier dilution” was corrected to give the appropriate kinetic parameters. See, e.g., Roy, et al. (1994).
The observed velocity (Vapp) is related to the actual velocity (Vact) by equation [I] where [Sact] and [S*] are the total substrate concentration and B concentration, respectively. The reciprocal plot after correction for this “carrier dilution” phenomenon is illustrated in FIG. 4b.
A recent fluorescence correlation spectroscopy (FCS) assay for the restriction endonuclease EcoRI using 0.8 nM of dual fluorophoric-labeled dsDNA and a highly specialized FCS spectrometer, reported a detection limit of 1.6 pM EcoRI. Kettling, U., et al. (1998). Under the conditions containing even slightly less oligonucleotide (0.68 nM molecular break light), cleavage was easily detectable to 3.7 pM BamHI. […] This assay was performed undert the same conditions as the other assays in this Example.

break light B [7] = experiment: BamHI / DNaseI digestion of break light B (proof of principle); type: biochemical
Description: as §1, §2

## CCN[C@H]1CO[C@@H](O[C@H]2[C@H](O[C@H]3C#C/C=C/C#C[C@@]4(O)CC(=O)C(NC(=O)OC)=C3/C4=C\CSSSC)O[C@H](C)[C@@H](NO[C@H]3C[C@H](O)[C@H](SC(=O)c4c(C)c(I)c(O[C@@H]5O[C@@H](C)[C@H](O)[C@@H](OC)[C@H]5O)c(OC)c4OC)[C@@H](C)O3)[C@@H]2O)C[C@@H]1OC [Calicheamicinγ1^l, calicheamicin γ1^I]
[1]; calicheamicin in the absence of DTT (lane a)
  DNA cleavage: no DNA cleavage
[1]; presence of DTT and calicheamicin (lane c)
  DNA cleavage: efficient cleavage
Break light B [2]
  rate of cleavage of break light B compared with break light A: rate identical to that of break light A
Break light A [3]; 3.2 nM break light A, conditions described
  detection of agent by the assay (sensitivity range): pM range
Break light A [3]; 3.2 nM break light A, excess DTT
  maximum fluorescence upon cleavage, compared with DNaseI: identical to that observed with DNaseI
Break light A [3]; [DNA]total = 3.2 nM
  Turnover (Vmax/[Agent]): 0.007 s⁻¹
Break light A [3]; [DNA]total = 3.2 nM, 37° C.
  Vmax: 0.011 ± 0.002^d nM sec^−1
Break light A [3]; [DNA]total = 3.2 nM, MPE as common agent
  Comparison to EDTA (fold enhancement over EDTA turnover): 4.8 × 10^5 fold
Break light A [3]; from Table 1
  enhancement of cleavage efficiency over bleomycin: ~10 fold

## EcoRI: restriction endonuclease
[4]
  detection limit: 1.6 pM

B1: BamHI: restriction endonuclease, commercially available (protein, UniProt P23940 1-213, looked up)
Type II restriction enzyme …: MEVEKEFITDEAKELLSKDKLIQQAYNEVKTSICSPIWPATSKTFTINNTEKNCNGVVPIKELCYTLLEDTYNWYREKPLDILKLEKKKGGPIDVYKEFIENSELKRVGMEFETGNISSAHRSMNKLLLGLKHGEIDLAIILMPIKQLAYYLTDRVTNFEELEPYFELTEGQPFIFIGFNAEAYNSNVPLIPKGSDGMSKRSIKKWKDKVENK
Break light A [5]
  change in fluorescence intensity over time: no change
[6]
  Km: 0.4 nM
  V max, previously reported: 0.009 nM/s
Molecular break light B
  detection limit: 0.12 pM
Molecular break light B; 0.68 nM molecular break light
  detection limit (cleavage easily detectable to): 3.7 pM
Molecular break light B; 10 U BamHI, 3.2 nM break light B plus non-labeled oligonucleotide, 37° C., pH 7.5
  Vmax: 0.024 ± 0.001 nM/s
Molecular break light B; 10 U BamHI, break light B plus non-labeled oligonucleotide, 37° C., pH 7.5
  Km: 8.9 ± 0.5 nM
Molecular break light B; BamHI, break light B
  Comparison to EDTA (fold enhancement over EDTA turnover): 4.8 × 10^5 fold
  Turnover (Vmax/[Agent]; also known as kcat): 0.007^c sec^−1
Molecular break light B; molecular break light concentration 34 nM
  detection limit: 0.12 pM
Break light B [7]; 3.2 nM break light B, 37° C., 100 U BamHI or 10 U DNaseI
  change in fluorescence intensity over time: increase of fluorescence
Break light B [7]; same concentration of molecular break light
  fluorescence maximum intensity upon complete cleavage, relative to DNaseI: 75%
